Like-named read-outs stand apart in the source and are kept apart here.
Key:
[1] = target: Transthyretin, wild type, first purification protocol (TTR1st) (human (by the printed accession P02766)) (UniProt P02766); test: SEC
[2] = target: Transthyretin, wild type, first purification protocol (TTR1st) (human (by the printed accession P02766)) (UniProt P02766); test: SEC; remark: listed apart in the source

percent of the sample as oligomers (oTTR) [1]: 7% | percent of the sample as tetramer [1]: 93% | stoichiometry N [1]: 4 | percent of the sample as oligomers (oTTR) [2]: 4%
Substance: Transthyretin, wild type, first purification protocol (TTR1st) (from UniProt P02766 21-147) (enzyme)

Reference: doi:10.1101/2023.08.10.552896
